Source: article PMC10861593, “Kisspeptin-10 binding to Gpr54 in osteoclasts prevents bone loss by activating Dusp18-mediated dephosphorylation of Src” (Nature Communications, 2024)

B1: mouse Gpr54^336–342 peptide (peptide, UniProt Q91V45 336-342, looked up)
peptide: RVCPCCR
notes: mouse Gpr54 (Kiss1 receptor), residues 336-342, said to correspond to the RxxPxxR motif; also called peptide of Gpr54^336–342 (RxxPxxR motif); source: synthetic peptide
B2: His-DUSP18 (enzyme, human, UniProt Q8NEJ0 1-188, looked up)
chain: MTAPSCAFPVQFRQPSVSGLSQITKSLYISNGVAANNKLMLSSNQITMVINVSVEVVNTLYEDIQYMQVPVADSPNSRLCDFFDPIADHIHSVEMKQGRTLLHCAAGVSRSAALCLAYLMKYHAMSLLDAHTWTKSCRPIIRPNSGFWEQLIHYEFQLFGKNTVHMVSSPVGMIPDIYEKEVRLMIPL
notes: full-length WT human DUSP18, in pMCSG7; In the SPR it is called 'DUSP18 protein'; removal of the tag is not mentioned; also called DUSP18 protein; WT-DUSP18; source: E. coli, purified; not shown: His, N-terminal, kept
B3: DUSP18: full-length WT human DUSP18 (protein, UniProt Q8NEJ0 1-188, looked up)
chain: B2 chain
modifications: full-length His tag

Assays:
SH3 domain of Src = test: SH3 domain protein-binding array; conditions: TranSignal SH3 Domain Array, GST-GPR54 CT overnight at 4 °C
Procedure: SH3 domain protein-binding array was performed using TranSignal™ SH3 Domain Array kit (Cat. #MA3010). The kit was purchased from Panomics, and probed using GST-GPR54 CT. Purified different SH3 domain-containing proteins including the Src kinase family were spotted in duplicate on the membrane filter and tested for their binding to GST-GPR54 CT. Briefly, membrane filters were incubated with […] GST-GPR54 CT protein overnight at 4 °C. After washing the membrane, the GST antibody was incubated overnight at 4 °C. Protein binding was visualized by incubation with an HRP-conjugated antibody. Spots with stronger intensities indicated a higher binding affinity of GST-GPR54 CT with the SH3 domain-containing protein (s). SH3 domain proteins in the array were summarized in Supplementary Table 3.

His-DUSP18 = biological target: B2; test: SPR; Biacore T200, DUSP18 protein immobilised on CM5 by amine coupling (25 ug/mL, pH 7.4, PBS); 25 °C, 30 µl/minute, PBS with 0.05% Tween-20; kinetics analysis, 1:1 model; conditions: both partners purified
[1] = biological target: T1, His-SRC protein, Src (G85-L536) (human, UniProt P12931 85-536); test: SPR; Biacore T200, DUSP18 and Src; which of the two was immobilised is not told; 25 °C, 30 µl/minute, PBS with 0.05% Tween-20; kinetics analysis, 1:1 model; conditions: both partners purified
T1 construct: human Src, G85-L536, in pFastBac HT B; In the SPR it is called 'SRC protein'; removal of the tag is not mentioned; source: Sf9 (Bac-to-Bac baculovirus), purified; not shown: His6, N-terminal, kept

GPR54 CT [2] = test: competitive pull-down assay, His-SRC and His-DUSP18 with GST-GPR54 CT; assay type: binding, human; conditions: His-SRC 0 or 0.1 μg, His-DUSP18 0, 0.1 or 0.2 μg
Procedure: Beads were analyzed by phosphatase activity assay (a), mass spectrometry assay (b), IB analysis (c) and quantification of protein levels (d). e, f Protein co-localization was analyzed by IF staining in primary pre-osteoclast with 10 nM Kp-10 treatment for 20 min. […] Scale bar, 50 µm. g, h binding affinity was measured by SPR binding analysis. […] Data represent means ± SEM. P values were determined by one-way ANOVA analysis (a, d, j, l) or two-tailed Student’s t-test (f). Representative results were obtained from at least three independent experiments. Source data are provided as a Source Data file.

Src (Y416) = test: in vitro phosphatase activity assay with Src; assay type: biochemical, human; conditions: purified proteins; 30 min at 30 °C; Western blot
Procedure: The C terminus of human GPR54 (H329- L398) and mouse Gpr54 (R331- L396) cDNAs were subcloned into a pGEX-4T2 vector. For purification of full-length WT human DUSP18 and DUSP18 (C104S) proteins, DUSP18 was cloned into pMCSG7 vector. For purification of Src (G85-L536) protein, cDNAs of human Src were subcloned into pFastBac HT B vector with an N-terminal 6xHis tag and expressed in Sf9 cells (Expression Systems) using the Bac-to-Bac Baculovirus Expression System (Invitrogen) for 48 h. For purification of the Src (G85-V247)-GPR54 (333–356 with C338S, C340S mutation) recombinant fusion protein, the C-terminus of GPR54 (333–356 with C338S and C340S mutation) was linked to the C terminus of Src SH3-SH2 domain (G85-V247), which was subcloned into the pMCSG7 vector.
For the total phosphatase activity assay, the Co-IP experiment was carried out after Kp-10 treatment of RAW264.7 cells for 20 min, followed by lysis and incubation with the Gpr54 antibody. The assay was performed according to the phosphatase assay kit (Sigma-Aldrich,17-313). For the DUSP18 phosphatase activity assay, His-DUSP18 and His-DUSP18 (C104S) were purified from E Coli, and His-Src was purified from Sf9 insect cells. His-DUSP18 and His-DUSP18 (C104S) were incubated with His-Src in 1x phosphatase buffer (20 mM HEPES, 20 mM MgCl2, 0.03% β-mercaptoethanol)[51] for 30 min at 30 °C with gentle shaking. […]

GPR54 CT [3] = test: GST pull-down / Co-IP of GPR54 CT with DUSP18, PTPN6 and PPP1CA; assay type: binding, human; conditions: 293T WCL, DUSP18-Flag, PPP1CA-Flag or PTPN6-Flag
Procedure: Supplementary Fig. 3 a, b SPR binding analysis showing the binding affinity of Src and human GPR54^336-356 peptide (a), Src and human GPR54 ^333-344 peptide (b). c, d Anti-Flag IP derived from 293T cells transfected with HA-Src and GPR54-Flag constructs with Kp-10 (10 nM) stimulation (c) and quantification of protein levels (d). e. e IF staining was carried out using pre-osteoclasts differentiated from BMMs in the presence of M-CSF (10 ng/ml) and RANKL (50 ng/ml) for 2 days. Representative images were shown by TIRF microscopy. f, g IB analysis of total samples and GST pull-downs using GST proteins including GST, GST-GPR54 CT incubated separately with WCL of 293T cells transfected with DUSP18-flag, PPP1CA-Flag or PTPN6-Flag (f), and quantification of protein levels (g). Error bars are ± SEM. P-values were determined by two-tailed Student’s t-test (d) or one-way ANOVA analysis (g). *P <0.05, Representative results were observed from at least three independent experiments. Source data are provided as a Source Data file.

Molecule: GPR54 CT: C terminus of human GPR54 (H329- L398)
interaction with SH3 domains (SH3 domain of Src): interacted with the SH3 domain of Src most obviously

Molecule: B1
Kd (His-DUSP18): 1800 nM

Molecule: B2
Kd [1]: 5.9 nM

Molecule: B3
competition with Src for binding to GPR54 CT (GPR54 CT [2]): competed with Src for binding to GPR54 CT
dephosphorylation of Src (Y416) (Src (Y416)): potently reduced the phosphorylation of Src (Y416)
interaction with GPR54 among DUSP18, PTPN6 and PPP1CA (GPR54 CT [3]): had the strongest interaction with GPR54
